Data set [1] has as its target Ku70/Ku80 heterodimer FL (baculovirus) (human) (UniProt P12956+P13010). Kind of data set: MST. To be noted: 1 mM DTT, 24 C, 40 nM FAM-RNA, EMSA: 25 mM Hepes-KOH pH 7.5, 50 mM NaCl, 1 mM EDTA, 10% glycerol, 0.1 uM BSA …. On the technique in general: In EMSA bound probe runs differently from free probe, usually more slowly.
Data set [2] addresses Ku5D T305D;S306D;T307D;S314D;T316D (human) (UniProt P12956+P13010). Nature of the data set: MST. To be noted: MST: 50 mM Tris pH 8.0, 50 mM NaCl, 1 mM DTT, 24 C, 40 nM FAM-RNA, EMSA: 25 mM Hepes-KOH pH 7.5, 50 mM NaCl, 1 mM EDTA, 10% glycerol, 0.1 uM BSA ….
[3] abbreviates: MST: 50 mM Tris pH 8.0, 50 mM NaCl.

We go through five substances from PMC7641761.

What is called Kd is the free concentration of one partner at which half of the binding sites on the other are occupied at equilibrium, for simple one-to-one binding. A lower Kd goes with higher affinity.

Chain of Ku70/Ku80 heterodimer FL (baculovirus) (human) (P12956 whole entry, chain 1 of 2): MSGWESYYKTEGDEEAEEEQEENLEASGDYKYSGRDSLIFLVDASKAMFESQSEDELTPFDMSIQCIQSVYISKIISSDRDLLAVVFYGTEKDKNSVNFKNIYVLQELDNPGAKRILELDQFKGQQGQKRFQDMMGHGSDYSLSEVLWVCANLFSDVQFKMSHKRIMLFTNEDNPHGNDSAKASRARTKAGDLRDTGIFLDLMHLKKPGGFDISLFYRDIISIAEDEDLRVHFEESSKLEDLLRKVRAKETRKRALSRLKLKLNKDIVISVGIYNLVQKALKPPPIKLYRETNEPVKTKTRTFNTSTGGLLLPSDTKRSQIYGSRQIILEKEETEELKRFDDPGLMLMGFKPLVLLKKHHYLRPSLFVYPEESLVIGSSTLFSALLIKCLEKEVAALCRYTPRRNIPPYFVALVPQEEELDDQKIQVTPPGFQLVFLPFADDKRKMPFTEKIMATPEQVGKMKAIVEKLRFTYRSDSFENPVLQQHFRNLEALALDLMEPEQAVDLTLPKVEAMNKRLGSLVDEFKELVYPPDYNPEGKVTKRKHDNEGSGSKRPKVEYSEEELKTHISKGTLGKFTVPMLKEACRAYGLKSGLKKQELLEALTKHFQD
Chain of Ku70/Ku80 heterodimer FL (baculovirus) (human) (P13010 1-718, chain 2 of 2): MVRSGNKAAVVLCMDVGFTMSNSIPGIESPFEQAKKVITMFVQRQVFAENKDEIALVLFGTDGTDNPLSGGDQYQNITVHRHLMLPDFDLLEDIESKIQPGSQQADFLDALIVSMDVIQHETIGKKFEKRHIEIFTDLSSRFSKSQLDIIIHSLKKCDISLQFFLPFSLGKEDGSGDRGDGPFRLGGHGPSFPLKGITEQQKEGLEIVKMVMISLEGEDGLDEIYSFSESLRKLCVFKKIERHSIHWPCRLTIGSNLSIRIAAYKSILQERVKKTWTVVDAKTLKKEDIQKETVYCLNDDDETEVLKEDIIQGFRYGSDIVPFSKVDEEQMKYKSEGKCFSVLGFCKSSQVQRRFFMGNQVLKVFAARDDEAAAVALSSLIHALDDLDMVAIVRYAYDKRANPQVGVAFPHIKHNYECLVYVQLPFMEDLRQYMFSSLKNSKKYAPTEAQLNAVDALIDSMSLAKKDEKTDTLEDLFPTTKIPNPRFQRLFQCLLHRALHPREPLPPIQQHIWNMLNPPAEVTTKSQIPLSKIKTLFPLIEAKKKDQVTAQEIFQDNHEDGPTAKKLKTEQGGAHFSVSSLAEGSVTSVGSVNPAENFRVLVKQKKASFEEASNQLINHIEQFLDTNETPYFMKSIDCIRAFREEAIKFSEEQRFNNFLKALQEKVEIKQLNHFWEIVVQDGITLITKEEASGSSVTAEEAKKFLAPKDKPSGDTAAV
Chain of Ku5D T305D;S306D;T307D;S314D;T316D (human) (P12956 whole entry T305D/S306D/T307D/S314D/T316D, chain 1 of 2): as the sequence (P12956 whole entry, chain 1 of 2) above, with T305D, S306D, T307D, S314D, T316D counted along it
Chain of Ku5D T305D;S306D;T307D;S314D;T316D (human) (P13010 1-718, chain 2 of 2): as the sequence (P13010 1-718, chain 2 of 2) above

In turn, polyC came in with a Kd in data set [1] (setting [3]) of 1290 nM. Same read-out and setting: next, polyU: 1400 nM. As to FL LINP1, the binding signal (fold better than WT) in data set [2] was found to be 2. This substance also gave a Kd in data set [1] (Hill 1.0, MST: 50 mM Tris pH 8.0, 50 mM NaCl) of 740 nM. polyA had a Kd in data set [1] (setting [3]) of 4800 nM. LINP1 SL2 + SL3 gave a Kd in data set [1] (setting [3]) of 700 nM.
